# Source: the nanobody polyreactivity screen of Harvey et al. (2022)
# Experiment: yeast display, Sf9 membrane polyspecificity reagent, FACS + sequencing; frameworks hold sequencing errors
# In short: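 After 36–48 hours of galactose induction, yeast (Saccharomyces cerevisiae BJ5465) displaying a synthetic nanobody library were stained at 4 °C for 1 hour with 10% biotinylated, detergent-solubilized Sf9 membrane reagent. Streptavidin microbeads enriched the stained cells before FACS sorting into low and high (top ~1%) gates on anti-HA and streptavidin fluorescence. Each clone's polyreactivity label reflects its gate of origin.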
row,Sequence,polyreactivity (PSR sort gate)
1,QVQLVESGGGLVQAGGSLRLSCAASGRTFLSNAMGWYRQAPGKERELVADITFRGGNTYYADSVKGRFTISRGNAKNTVYLQMNSLKPEDTAVYYCAVLGYGRLSRVRYGYWGQGTQVTVSS,high polyreactivity
2,QVQLVESGGGLVQAGGSLRISCAASGNIFSYYAMGWYRQAPGKERELVAAISSGGSTYYADSVKGRFTISRDNGMNTVYLQMNSLKPEDTAVYYCNKLAYVGRYGYWGQGTEVTVSS,high polyreactivity
3,QVQLVESGGGLVQAGGSLRISCAASGFIIYGYVMGWYRQAPGKERELVAAINSSSGRTYYADSVKGRFTISRDNAKNTVYLQMNSLKPEDTAVYYCAAYYYCSYDGTPYDYWGQGTQVTVSS,low polyreactivity
4,QVQLVESGGGLVQAGGSLRLSCASSGYTFALYAKGWYRQAPGKERELVAAITDSDGSTYADSVKGRFTITRDNAKNTVYLQMNSVKPEDTAVYYCAAESEQWYSYVLSYDWEYDYWGQGTQVTVSS,low polyreactivity
5,QVQLVESGGGLVQAGGSLRLSCAATGSIFKWYAMGWYRQEPGKERELVSAISKSGGSTYYADSVKGRFTISRDNAKNTVYLQINSLKPEDTAVYYCNAVYIGSRRRYEYDYWGEGTQVTVSS,high polyreactivity
6,QDKLVESGGGLVQAGGSLRLICAASGFTFNRYALGWYRKAPGKERELVAGITGGGSTKYADSVKGRFTISRDNAKNTVYLQMNSLKPEDTSVYYCNASGYSYGARYYYWGQGTQVTVSS,high polyreactivity
7,QVQRVESGGGLVQAGGRLRLSCAASGSIFASYDMGWYRQSRGKERELVARITFNAGSTYYADSVKGRFTISRDNAKNTVYLQMNSLKPEDTAVYYCIADYPWEYDYWGEGTQVTVSS,low polyreactivity
8,QVQLVESGGGLLQAGGSLRLSCAASVRFLCYGWYRQAPGKERELVAAITWSGGSTYYADSVKGRFTISRDNAKNTVYLLMNSLKPEDTAVYYCARYPDSYWYGRKNYYWGQGTQVTVSS,high polyreactivity
9,QVQLVESGGGLVQAGGSLRVSCAASGFTFYQYGMGWYRQAPGKERELVATSTSGGRTNYADSVKGRFTISRDNAKNTVYLQMNSLKPEDTAVYYCNKLPYYPRVGRIGRYYYWGQGTQVTVSS,high polyreactivity
10,QVQQQESGGGLVKAGGSLRLSCAASGNNSPRDAMGWYRQAPGEERDLVASNAYSAITYYADGVKGRYTISRDNAKNTVYLQMNSLKPEDTEVYYCAVYQFTYPVFPAYWGQGTQVTVSS,low polyreactivity
11,QVQLVESGGGLVQAGGSLRLSCAASGFTFYNNAMGWYRQAPGKERELVAVITSNGGRTYYADSVKGRFTISRDNAKNTVYLQMNSLKPEDTAVYYCAKDYKALYLYHYRISGGDVDYWGQGTQVTVSS,low polyreactivity
12,QVQLVESGGGLVQAGGSLRLSCAASGLTFFNYAMGWNRQAPGKERELVASITSGGSTNYADSVKGRFTISRDNAKNTVYLQMNSLNPEDTAVYYCAARYPYRTYKLSHSYARPYGYWGQGTQVTVSS,high polyreactivity
13,QVQLVESGGGLVQAGGSLRLSCAASGRIFYDNAMGWYSQAPGKERELVAAIRIGGSTNYADSVKGRFTISRDNAKNTVYLLMNSLKPEDTAVYYCNRSDNPDSYYPDSVWGDSWGQGTQVTVSS,low polyreactivity
14,QVQLVESGGGLVQAGGSLRLSCAASGFTFYSYAMGWYRQAPGKERELVAAITRSGGSTRYADSVKGRFTISRDNAKNTVYLQMNSLKPEDTAVYYCAARFVRNYVYKYNYWGQGTQVTVSS,high polyreactivity
15,QVQLVESGEGLVQAGGSLRLSCAASGITFGWYAMGWYRQAPGKERELVASISSSGSTNYADSVKGRFTISRDNAKNTVYLQMNSLKPEDTAVYYCNKDYLLSHYYIYVIEGDYWGQGTQVTVSS,low polyreactivity
16,QVHLQESGGGLVQAGGSLRLSCAASGTISDSGLMGWYRQAPGKERELVAGISSGGINNYADSVKGRFTISRDNAKYTEYLQMNSLKPEDTAVYWGQGTQVTLSS,low polyreactivity
17,QVQLVESGGGLVQAGGSLRLSCAASGRTFKDYAMGWYRQAPGKERELVAAISWSGGDTYYADSVKGRVTISRDNAKNTVYLQMNSLKPEDTAVYYCNADPSGVFFYSLEFDYWGQGTQVTVSS,low polyreactivity
18,QVQLVESGGGLVQAGGSLRLSCAASGNTFYNVYAMGWYRQATGKERELVAAITARGSTYADSVKGRFTISRDNAKNTVYLQMNSLKPEDNAVYYGATRSSWLYRGLYYNGFNYWGQGTQVTVSS,high polyreactivity
19,QVQLVESGGGLVQAGGSLRLSCAASGIIFWLYTMGWYRQAPGKERELVAAITSGGSTYYAESVKGRFTISRDNAKNTVYLQMNSLKPEDTAVYYCAAVSRAPGLRYDYWGQGTQVTVSS,high polyreactivity
20,QVQLVESGGGLVQAGGSLRLSCAASGSIFEWYAMGWYRQAPGKASALVAAISSGGRTYYADSVKGRFTISRDNAKNTVYLQMISLKPEDTAVYYCAARDVDHVGGSKYYYWGLGTQVTVSS,high polyreactivity
21,QVKLVESAGGLVQAGGSLRLSCSASAFIFGFNAMGWYRQEPGKERELVAAITWRGGRTSNADSVKGRFTISRDNAKNTVYLQMNSLKPEDTAVYYCAARRGTIVTRSRGYNYWGQGTQVTVSS,high polyreactivity
22,QVQLVESGGGLVQAGGSLRLSCAASGIIFPYNVMGWYRQAPGKERELVAAITRGAASTYYADSVKGRFTISRDNAKNTVYLQMNSLKPEDTAVYYCNADGTWRTYNYWGQGTQVTVSS,high polyreactivity

row,Sequence,polyreactivity (PSR sort gate)
1,QVQLVESGGGLVQAGGSLRLSCAASGIIFRNYAMGWYRQAPGKERELVATIRYRGGRTYADSVKGRFTISRDNAKNTVYLQMNSLKPEDTAVYYCNTYARYAYLTGRMEYWGQGTQVTVSS,high polyreactivity
2,QVQLVESGGGLVQAGGSLRLSCAASGRIFPYYAMGWYRQAPGKERELVAAISYRGTRTSYADSVKGRFTISRDNAKNTVYLQMNSLKPEDTAVYYCAAQRYFGISWPYDYWGQGTQVTVSS,high polyreactivity
3,QVQLEESGGGLVQAGGSLRLSCAASGFTFERNAMGWYRQAPGKERELVAAISWSGGSTYYADSVKGRFTISRDNAKNTVYLQMNSLKPEDTAVYYCAAYQWGYWYGYRMDYWGQGTQVTVSS,high polyreactivity
4,QVQLVESGGGLVQAGGSLRLSCAASGRTFGAYAMGLYRQEPGKETELVAAISKSGGRTYYADSVKGRFTISRDYAKNTVYLLMNSLKPEDTAVYYCNARGFRGEYDYWGEGTQVTVSS,high polyreactivity
5,QVQLVESGGGLVQAGGSLLLSCAASGRILDFYDMGWYRQAPGKERELVAAITNSASTYYADSVKGRFTISRDNAKNTVYLQMNRLKPEDTAVYYCNADLYRGAYYGTYWSDWGYDYWGQGTQVTVSS,low polyreactivity
6,QVQLVESGGGLVQAGGSLRLSCAASGFTFGANDMGWYRQAPGKERELVATISSSGGTTYYADSVKGRFTISRDNAKNTVYLQMNSLKPEDTAVYYCAAKGLFTGRVSRYADDHCGQGTQVTVSS,low polyreactivity
7,QVQLVESGGGLVQAGGSLRLSCAASGSIFGRYPMGWYRQAPGKERELVAAISRRGGSTYYADSVKGRFTISRDNAKNTVYLQMNSLKPEDTAVYYCAARPFVKHDYWGQGTQVTVSS,high polyreactivity
8,QVQLEESGGGLVQAGGRLRLTCAASGFIFKLYAMGWYRQAPGKERELVAAISGNGGRTYYADSVKGRFTISRDNAKNTVYLQMNSLKPEDTAVDYCAARYVGVQRYYEFDYWGQGTQVTVSS,high polyreactivity
9,QGQLVESGGGLVQAGGSLRLSCAASGRTFYRYAMGWYRQAPGQERELVASITRGTSTNYADSVKGRFTISRDNAKNTVYLQMNSLKPEDTAVYYCAAGASGLFWDYDYWGQGTQVTVSS,high polyreactivity
10,QVQLVESGGGLVQAGGSLRLSCAASGITFDSYAMGWNRQAPGKERELVAAISYSGGSTYYADSVKGRFTISRDNAKNTVYLQMNSLNPEDTAVYFCAAGSDDDYDYWGQGTQVTVSS,low polyreactivity
11,QVQLVESGGGLVQAGASLRLSCAASGSIFAAYTMGWYRQAPGTERELVAAISVSTVSTYYADSVKGRFTISRDNAKNTVFLQMNSLKAEVTAVYYCNADATDSYTEKDEHDSWGQGTQLTVSS,low polyreactivity
12,QVQLVESGGGLVQAGGSLRLSCAASGSTISRYTMGWYPQAPGKERELVAAIRRSGSSTYYADSVKGRYTISRDNAKYTVYLQMNSLKREDTAVYYCAVGRYRYGYWGQGTQVTVSS,high polyreactivity
13,QVQLEESGGGLVQAGGSLRLSCAAAGLTFDVYAMGWYRPAPGNEMELVAAISSIGGSTYYADSVKGRFTISRDNAKNNVYLQMYSLKPEDTAVYYCSAAISLYSYDYWGQGTQVTVSS,low polyreactivity
14,QVQLVESGGGLVQAGGSLRLSCAASGFTFDIYGMGWYRQAPGNERDLVASITSRSARTYYAYSVKGRFTISRDNAKNTVYLQMNSLKPEDTAVYYCAAYYWQCTYDSRRTGWRLMNYWGQGTQVTVSS,high polyreactivity
15,QVQLVESGGGLVQAGGSLRLSCAASGSTFYRNAMGWYRQAPGKERELVATITFNGGSTYYADSVKGRFTISRDNAKNTVYLQMNSLKPEDTAVYYCNTDWRGDPELYDYWGQGTQVTVSS,low polyreactivity
16,LVQLVESGGGLVQAGGSLRLSCAASGFISPSYALGWYRQAPGKERELVAAIRSSDGSTYYADSVKGRFTISRDNAKNTAYVQMNSRKPEDTAVYYCAAGGSSYRDDYWGQGSQVTVSS,low polyreactivity
17,QVQLVESGGGLVQAGGSLRLSCAASGRTFGRYTMGWYRQAPGKERELVAAITGRGGSTFYADSVKGRFTISRDNAKNTVYLQMNSLKPEDTAVYYCAARRTSIKDQFYYWGQGTQVTVSS,high polyreactivity
18,QVQLVESGAGLVQAGGSLRLSCAASGIIFSDNAMGWYRQAPGKEMELVAAIDWSGGSTYYADSVKGRFTISRDNAKNTVYLHMNSLKPEDTAVDYCAAEYRDYVPVNVTGDYWGQGTQVTVSS,low polyreactivity
19,QVQLVESGGGLVQAGGSLRLSCAASGRTFGRNAMGWYRQAPGKERELVAAISSDGGRTYYADSVKGRFTISRDNAKNTVYLQMNSLKPEDTAVYYCAKQRSYSDGGYWGQGTQVTVSS,low polyreactivity
20,QVQLVESGGGVVQAGGSLRLSCAASGSIFRQNTMGWYRQAPGKERELVAAISSGGSTYYADSVKGRFTISRDNAKNTVYLQMNSPKPEDTAVYYCAAYHSFVWGDDYWGQGTQVTVSS,low polyreactivity
21,QVQLVESGGGLVQAGGSLRLSCAASGIIFGYYAMGWYRQAPGKERELVAAINQDGSSTYYADSVKGRFTISRDNAKNTVYLQMNSLKPEDTAVYYCNARGVPRQDARMGYWGQGTQVTVSS,low polyreactivity
